Test [1] has as its target scavenger receptor CD-36 pulled down from macrophage membrane extracts or lysates (UniProt P16671 2-472). Put plainly: plate binding assay on CD-36 pulled down from macrophage membrane extracts.
Test [2] concerns the target T1, scavenger receptor SR-AI pulled down from macrophage membrane extracts or lysates (UniProt P21757 1-451).
T1 construct: also called SR-A1
T1 sequence (looked up): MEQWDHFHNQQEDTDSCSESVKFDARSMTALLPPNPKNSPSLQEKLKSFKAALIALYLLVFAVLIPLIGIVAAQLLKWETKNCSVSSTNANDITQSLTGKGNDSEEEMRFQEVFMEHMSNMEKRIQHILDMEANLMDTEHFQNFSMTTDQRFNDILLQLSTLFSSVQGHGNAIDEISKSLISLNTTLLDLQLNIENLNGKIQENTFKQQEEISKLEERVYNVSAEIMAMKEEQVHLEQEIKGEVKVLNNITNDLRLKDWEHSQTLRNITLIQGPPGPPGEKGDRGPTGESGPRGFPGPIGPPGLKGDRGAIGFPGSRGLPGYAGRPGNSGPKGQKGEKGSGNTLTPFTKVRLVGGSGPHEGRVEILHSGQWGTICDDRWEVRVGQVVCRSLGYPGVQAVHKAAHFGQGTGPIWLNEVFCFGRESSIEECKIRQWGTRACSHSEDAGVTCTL
In words: plate binding assay on SR-AI pulled down from macrophage membrane extracts.

Sequence of scavenger receptor CD-36 pulled down from macrophage membrane extracts or lysates (P16671 2-472 limits assumed): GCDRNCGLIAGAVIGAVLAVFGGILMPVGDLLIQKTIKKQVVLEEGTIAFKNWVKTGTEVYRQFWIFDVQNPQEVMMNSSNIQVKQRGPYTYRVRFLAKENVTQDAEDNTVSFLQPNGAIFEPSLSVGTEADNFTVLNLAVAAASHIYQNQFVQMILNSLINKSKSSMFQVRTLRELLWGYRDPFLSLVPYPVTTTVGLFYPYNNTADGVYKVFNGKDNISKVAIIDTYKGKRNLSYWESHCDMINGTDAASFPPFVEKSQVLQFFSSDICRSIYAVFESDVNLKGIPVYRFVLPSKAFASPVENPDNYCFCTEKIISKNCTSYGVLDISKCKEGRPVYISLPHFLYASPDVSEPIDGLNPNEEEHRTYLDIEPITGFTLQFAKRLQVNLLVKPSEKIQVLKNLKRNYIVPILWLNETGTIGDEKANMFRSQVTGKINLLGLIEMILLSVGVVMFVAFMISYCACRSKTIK

B1: HIS-tagged HSP27 polypeptide fragment rC1 (other)
chain: MHHHHHHHHDDDDKGGDRWRVSLDVNHFAPDELTVKTKDGVVEITGKHEERQDEHGYISRCFTRKYTLPPGVDPTQVSSSLSPEGTLTVEAPMPKLSTQSNEITIPVTFESRAQLGGPEAAKSDETAAK
notes: also called HSP27 rC1; HSP27 fragment rC1
Turning to B1, the binding result in test [1] and in test [2] was “no binding” each time.

(Values after patent US20230210943A1 (PEMI31 THERAPEUTICS, published 2023).)
